# From paper doi:10.1101/2022.07.31.502215
# Target: SARS-CoV-2 main protease (Mpro) H172Y (SARS-CoV-2)
substance,measurement,value
Dabcyl-KTSAVLQ↓SGFRKM-E(Edans)-NH2 FRET substrate (peptide),"Michaelis constant Km, FRET-based cleavage assay (400 nM enzyme, substrate 10 to 320 μM, 20 mM HEPES, 120 mM NaCl, pH 7.0)",803 μM
